Results published in US20220267444A1 (CTTQ AKESO SHANGHAI BIOMED TECH, published 2022).
Substitutions are numbered along the chain they refer to. Numbers in names are those of the source. Each block holds one binder with its values, some of them ahead of it.

How the values were obtained:
[1] = biological target: T1, Serum complement C1q (UniProt P02745 23-245; P02746 28-253; P02747 29-245); experiment: BLI (Fortebio Octet); antibody on FAB2G sensor, C1q 1.25-20 nM; 1:1 fit
Procedure: (§1) 50 μg/mL antibody was immobilized on the FAB2G sensor at an immobilization height of about 2.0 nm. The sensor was equilibrated in a buffer for 60 s for blocking, and the binding of the immobilized antibody on the sensor to the antigen C1q at concentrations of 1.25-20 nM (serial two-fold dilution) was determined for 60 s. The antigen and antibody were dissociated in the buffer for 60 s. The sensor was refreshed 4 times in 10 mM glycine pH 1.7, each for 5 s. The shaking speed of the sample plate was 1000 rpm, the temperature was 30° C. and the frequency was 0.6 Hz. The data were analyzed by 1:1 model fitting to obtain affinity constants. The data acquisition software was Fortebio Data Acquisition 7.0, and the data analysis software was Fortebio Data Analysis 7.0.

[2] = biological target: T2, Fc receptor FcγRIIIa_V158 (UniProt P08637 17-208); experiment: BLI (Fortebio Octet); sentence on Table 2, differs from the table's 6.12E-07
T2 sequence (P08637 17-208 F176V limits assumed): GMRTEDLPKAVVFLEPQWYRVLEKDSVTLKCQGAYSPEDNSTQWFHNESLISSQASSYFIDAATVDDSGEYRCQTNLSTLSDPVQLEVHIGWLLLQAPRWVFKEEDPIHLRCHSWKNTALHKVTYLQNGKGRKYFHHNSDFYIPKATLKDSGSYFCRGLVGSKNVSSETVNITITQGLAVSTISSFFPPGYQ
Procedure: (§2) 5 μg/mL FcγRIIIa_V158 was immobilized on the HIS1K sensor for 120 s. The sensor was equilibrated in a buffer for 60 s, and the binding of the immobilized FcγRIIIa_V158 on the sensor to the antibodies at concentrations of 31.25-500 nM (serial two-fold dilution) was determined for 60 s. The antibody was dissociated in the buffer for 60 s. The sensor was refreshed 4 times in 10 mM glycine pH 1.5, each for 5 s. The temperature was 30° C. and the frequency was 0.3 Hz. The data were analyzed by 1:1 model fitting to obtain affinity constants.

[3] = biological target: T1, Serum complement C1q; experiment: BLI (Fortebio Octet), antibody immobilised on FAB2G sensor, C1q in solution at 1.25-20 nM
Procedure: as §1

[4] = biological target: T3, Fc receptor FcγRIIb (human, UniProt P31994 43-217); experiment: BLI (Fortebio Octet), hFcγRIIb-his immobilised on NTA sensor, antibody in solution at 12.5-200 nM
T3 construct: also called CD32b; hFcγRIIb-his; not shown: his tag named in 'hFcγRIIb-his'
T3 sequence (looked up): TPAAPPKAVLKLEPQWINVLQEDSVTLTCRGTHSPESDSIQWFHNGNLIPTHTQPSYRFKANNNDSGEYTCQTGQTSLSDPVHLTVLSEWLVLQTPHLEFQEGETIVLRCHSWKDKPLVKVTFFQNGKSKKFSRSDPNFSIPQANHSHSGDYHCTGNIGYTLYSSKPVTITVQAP
Procedure: (§3) 5 μg/mL hFcγRIIb-his was immobilized on the NTA sensor at an immobilization height of about 1.0 nm. The sensor was equilibrated in a buffer of 0.02% Tween-20, 0.02% casein and 0.1% BSA in PBS, pH 7.4 for 300 s of blocking, and the binding of the immobilized hFcγRIIb-his on the sensor to the antibodies at concentrations of 12.5-200 nM (serial two-fold dilution) was determined for 60 s. The antibody was dissociated in the buffer for 60 s. The sensor was refreshed in 10 mM glycine pH 1.7 and […] nickel sulfate. The temperature was 30° C. and the frequency was 0.6 Hz. The data were analyzed by 1:1 model fitting to obtain affinity constants.

[5] = biological target: T2, Fc receptor FcγRIIIa_V158; experiment: BLI (Fortebio Octet); FcγRIIIa_V158 on HIS1K sensor, antibody 31.25-500 nM; 1:1 fit
Procedure: as §2

[6] = biological target: T4, Fc receptor FcγRIIIa_F158 (UniProt P08637 17-208); experiment: BLI (Fortebio Octet), FcγRIIIa_F158 immobilised on HIS1K sensor, antibody in solution at 31.25-500 nM
T4 sequence (P08637 17-208 limits assumed): as the sequence (P08637 17-208 F176V limits assumed) above, with V160F counted along it
Procedure: as §2, with “FcγRIIIa_F158” for “FcγRIIIa_V158”

[7] = biological target: T3, Fc receptor FcγRIIb; experiment: BLI (Fortebio Octet); hFcγRIIb-his on NTA sensor, antibody 12.5-200 nM; 1:1 fit
Procedure: as §3

[8] = biological target: T5, Fc receptor FcγRI (UniProt P12314 16-288); experiment: BLI (Fortebio Octet); FcγRI on HIS1K sensor, antibody 3.12-50 nM; 1:1 fit
T5 construct: also called CD64
T5 sequence (P12314 16-288 limits assumed): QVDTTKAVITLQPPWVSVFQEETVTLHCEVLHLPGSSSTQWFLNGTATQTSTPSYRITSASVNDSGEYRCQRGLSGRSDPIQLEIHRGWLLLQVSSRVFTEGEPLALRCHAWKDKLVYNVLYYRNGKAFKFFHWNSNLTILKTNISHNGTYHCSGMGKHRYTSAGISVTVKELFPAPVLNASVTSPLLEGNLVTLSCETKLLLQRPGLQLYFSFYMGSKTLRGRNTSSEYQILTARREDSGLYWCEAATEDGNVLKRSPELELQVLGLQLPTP
Procedure: (§4) The Fc receptor FcγRI, also known as CD64, can bind to the Fc fragment of IgG antibodies and is involved in antibody-dependent cell-mediated cytotoxicity (ADCC). The binding capacity of a therapeutic monoclonal antibody to Fc receptors will influence the safety and efficacy of the antibody. […] A 1 μg/mL FcγRI solution (from Sinobio) was added to the HIS1K sensor to immobilize the FcγRI on the sensor surface for 50 s. The association and dissociation constants of the antibodies to FcγRI were both determined in the buffer with the antibody concentrations being 3.12-50 nM (serial two-fold dilution). The sensor with immobilized antigen was equilibrated in the buffer for 60 s, and then the binding of the immobilized FcγRI on the sensor to the antibodies was determined for 120 s; the dissociation of FcγRI from the antibodies was determined in 120 s. The temperature was 30° C. and the frequency was 0.3 Hz. The data were fitted and analyzed with a 1:1 model to obtain the affinity constants to FcγRI for the antibodies.

[9] = biological target: T6, Fc receptor FcγRIIa_R131 (UniProt P12318 34-218, limits assumed); experiment: BLI (Fortebio Octet); FcγRIIa_R131 on NTA sensor, antibody 12.5-200 nM; 1:1 fit
T6 sequence (looked up): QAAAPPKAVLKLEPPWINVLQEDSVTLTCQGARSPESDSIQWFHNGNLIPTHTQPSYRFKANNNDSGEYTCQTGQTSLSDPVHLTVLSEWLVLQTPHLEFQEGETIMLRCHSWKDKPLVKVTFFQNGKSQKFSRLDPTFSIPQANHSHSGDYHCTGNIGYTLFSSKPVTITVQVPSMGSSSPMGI
Procedure: as §3, with “FcγRIIa_R131” for “hFcγRIIb-his”

[10] = biological target: T7, Fc receptor FcγRIIa_H131 (UniProt P12318 34-218, limits assumed); experiment: BLI (Fortebio Octet); FcγRIIa_H131 on NTA sensor, antibody 12.5-200 nM; 1:1 fit
T7 sequence (looked up): T6 sequence (looked up) with R134H
Procedure: as §3, with “FcγRIIa_H131” for “hFcγRIIb-his”

[11] = biological target: T4, Fc receptor FcγRIIIa_F158; experiment: BLI (Fortebio Octet); FcγRIIIa_F158 on HIS1K sensor, antibody 31.25-500 nM; 1:1 fit
Procedure: as §2, with “FcγRIIIa_F158” for “FcγRIIIa_V158”

[12] = biological target: T7, Fc receptor FcγRIIa_H131; experiment: BLI (Fortebio Octet), FcγRIIa_H131 immobilised on NTA sensor, antibody in solution at 12.5-200 nM
Procedure: as §3, with “FcγRIIa_H131” for “hFcγRIIb-his”

[13] = biological target: T5, Fc receptor FcγRI; experiment: BLI (Fortebio Octet), FcγRI immobilised on HIS1K sensor, antibody in solution at 3.12-50 nM
Procedure: as §4

[14] = biological target: T2, Fc receptor FcγRIIIa_V158; experiment: BLI (Fortebio Octet), FcγRIIIa_V158 immobilised on HIS1K sensor, antibody in solution at 31.25-500 nM
Procedure: as §2

T1 sequence (P02745 23-245 limits assumed, chain 1 of 3): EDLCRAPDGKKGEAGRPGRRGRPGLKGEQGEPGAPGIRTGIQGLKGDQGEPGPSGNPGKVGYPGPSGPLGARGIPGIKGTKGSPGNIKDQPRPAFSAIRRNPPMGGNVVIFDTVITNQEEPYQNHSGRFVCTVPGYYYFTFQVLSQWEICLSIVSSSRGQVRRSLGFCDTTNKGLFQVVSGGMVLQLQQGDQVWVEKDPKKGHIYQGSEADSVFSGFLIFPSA
T1 sequence (P02746 28-253 limits assumed, chain 2 of 3): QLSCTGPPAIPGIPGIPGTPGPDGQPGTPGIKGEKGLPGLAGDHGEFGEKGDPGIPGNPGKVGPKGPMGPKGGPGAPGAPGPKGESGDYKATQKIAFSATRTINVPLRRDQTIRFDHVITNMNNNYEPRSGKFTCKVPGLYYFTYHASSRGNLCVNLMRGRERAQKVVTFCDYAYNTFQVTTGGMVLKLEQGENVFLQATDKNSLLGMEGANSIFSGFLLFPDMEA
T1 sequence (P02747 29-245 limits assumed, chain 3 of 3): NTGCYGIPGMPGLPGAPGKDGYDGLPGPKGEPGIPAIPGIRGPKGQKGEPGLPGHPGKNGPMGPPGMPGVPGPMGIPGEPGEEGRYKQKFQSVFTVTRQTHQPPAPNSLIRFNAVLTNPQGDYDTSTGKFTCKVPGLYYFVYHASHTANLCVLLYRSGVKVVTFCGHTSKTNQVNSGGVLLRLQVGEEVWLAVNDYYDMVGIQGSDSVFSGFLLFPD

B1: 5C10H2L2-IgG1mt (antibody)
chain 1: not shown
chain 2: EIVLTQSPDTLSVTPKEKVTLTCRASQSIGTNIHWFQQKPGQSPKLLIKYASESISGVPSRFSGSGSGTDFTLTINSVEAEDAATYYCQQSNSWPYTFGQGTKLEIKRTVAAPSVFIFPPSDEQLKSGTASVVCLLNNFYPREAKVQWKVDNALQSGNSQESVTEQDSKDSTYSLSSTLTLSKADYEKHKVYACEVTHQGLSSPVTKSFNRGEC
Kd [1]: 4.43 nM
koff [1]: 0.0105 s⁻¹
kon [1]: 2.38e+06 M⁻¹ s⁻¹

B2: 14C12H1L1(hG1DM) (antibody, human IgG1, kappa, L234A L235A)
heavy: not shown
light: DIQMTQSPSSMSASVGDRVTFTCRASQDINTYLSWFQQKPGKSPKTLIYRANRLVSGVPSRFSGSGSGQDYTLTISSLQPEDMATYYCLQYDEFPLTFGAGTKLELKRTVAAPSVFIFPPSDEQLKSGTASVVCLLNNFYPREAKVQWKVDNALQSGNSQESVTEQDSKDSTYSLSSTLTLSKADYEKHKVYACEVTHQGLSSPVTKSFNRGEC
notes: Humanized anti-PD-1 IgG1 mutant of 14C12H1L1(hG1WT) with L234A and L235A in the heavy chain
Kd [2]: 621 nM
binding result [3]: no binding (tested: 20 nM)
binding result [4]: no binding (tested: 200 nM)
Kd [5]: 612 nM
koff [5]: 0.0824 s⁻¹
kon [5]: 135000 M⁻¹ s⁻¹
binding result [6]: no binding (tested: 500 nM)

B4: 14C12H1L1(hG1WT) (antibody, human IgG1, kappa)
heavy: not shown
light: B2 light
notes: Humanized anti-PD-1 antibody, wild-type human IgG1 constant region
Kd [7]: 61.3 nM
koff [7]: 0.0195 s⁻¹
kon [7]: 318000 M⁻¹ s⁻¹
Kd [8]: 2.52 nM
koff [8]: 0.00175 s⁻¹
kon [8]: 694000 M⁻¹ s⁻¹
Kd [9]: 34.6 nM
koff [9]: 0.0228 s⁻¹
kon [9]: 660000 M⁻¹ s⁻¹
Kd [1]: 1.35 nM
koff [1]: 0.00654 s⁻¹
kon [1]: 4.83e+06 M⁻¹ s⁻¹
Kd [5]: 65.4 nM
koff [5]: 0.0171 s⁻¹
kon [5]: 261000 M⁻¹ s⁻¹
Kd [11]: 102 nM
koff [11]: 0.0256 s⁻¹
kon [11]: 252000 M⁻¹ s⁻¹
Kd [10]: 57.4 nM
koff [10]: 0.0267 s⁻¹
kon [10]: 465000 M⁻¹ s⁻¹

Further lines, results first:

Kd [7]: 56.2 nM
koff [7]: 0.0162 s⁻¹
kon [7]: 288000 M⁻¹ s⁻¹
Kd [8]: 5.8 nM
koff [8]: 0.00369 s⁻¹
kon [8]: 637000 M⁻¹ s⁻¹
Kd [9]: 31.3 nM
koff [9]: 0.011 s⁻¹
kon [9]: 350000 M⁻¹ s⁻¹
binding result [3]: no binding (tested: 20 nM)
Kd [10]: 50.7 nM
koff [10]: 0.013 s⁻¹
kon [10]: 257000 M⁻¹ s⁻¹
binding result [6]: no binding (tested: 500 nM)
B3: 14C12H1L1(hG4) (antibody, human IgG4 S228P, kappa)
heavy: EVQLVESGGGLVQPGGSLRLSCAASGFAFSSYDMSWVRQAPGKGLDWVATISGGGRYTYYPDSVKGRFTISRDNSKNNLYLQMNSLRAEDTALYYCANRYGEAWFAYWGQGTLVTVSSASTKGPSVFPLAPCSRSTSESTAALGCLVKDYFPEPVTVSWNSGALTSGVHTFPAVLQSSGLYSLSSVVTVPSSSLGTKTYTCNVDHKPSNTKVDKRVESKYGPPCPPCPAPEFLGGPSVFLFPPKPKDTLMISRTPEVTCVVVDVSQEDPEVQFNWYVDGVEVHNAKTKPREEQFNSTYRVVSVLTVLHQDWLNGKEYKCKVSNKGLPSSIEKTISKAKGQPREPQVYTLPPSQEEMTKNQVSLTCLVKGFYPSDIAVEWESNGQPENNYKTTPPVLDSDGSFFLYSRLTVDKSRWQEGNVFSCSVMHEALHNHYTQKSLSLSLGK
light: B2 light
notes: Humanized anti-PD-1 antibody with the variable regions of 14C12H1L1(hG1WT), Ig gamma-4 chain C region (P01861.1) and Ig kappa chain C region (P01834)

binding result [12]: no binding (tested: 200 nM)
binding result [13]: no binding (tested: 50 nM)
Kd [9]: 232 nM
koff [9]: 0.0938 s⁻¹
kon [9]: 404000 M⁻¹ s⁻¹
binding result [3]: no binding (tested: 20 nM)
binding result [4]: no binding (tested: 200 nM)
binding result [6]: no binding (tested: 500 nM)
binding result [14]: no binding (tested: 500 nM)
B5: 14C12H1L1(hG1TM) (antibody, human IgG1, kappa)
heavy: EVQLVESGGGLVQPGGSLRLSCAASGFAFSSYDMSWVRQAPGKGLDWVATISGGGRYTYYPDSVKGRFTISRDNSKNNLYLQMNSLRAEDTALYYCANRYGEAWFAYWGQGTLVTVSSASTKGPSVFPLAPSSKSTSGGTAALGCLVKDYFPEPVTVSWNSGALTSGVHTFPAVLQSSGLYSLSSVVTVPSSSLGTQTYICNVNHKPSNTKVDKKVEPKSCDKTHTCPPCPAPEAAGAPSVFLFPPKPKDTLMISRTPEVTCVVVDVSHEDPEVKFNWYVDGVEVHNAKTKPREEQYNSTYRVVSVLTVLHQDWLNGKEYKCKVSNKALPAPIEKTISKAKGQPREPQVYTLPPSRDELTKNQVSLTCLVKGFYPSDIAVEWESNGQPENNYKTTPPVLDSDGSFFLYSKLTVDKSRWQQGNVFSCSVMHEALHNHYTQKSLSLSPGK
light: B2 light
notes: Humanized anti-PD-1 IgG1 mutant of 14C12H1L1(hG1WT) with L234A, L235A and G237A (EU numbering) in the heavy chain
